Measurements published in patent US20040063912A1.
Each block holds one substance with its values, some of them ahead of it.

Assays:
[1] = biological target: purified, soluble huFcRn (human) (UniProt P55899); assay: Biacore (SPR), purified soluble huFcRn
FcRn = assay: assay not stated; compared with EPO-Fc with native Fc
EPO receptor (EpoR) = assay: in vitro binding to EpoR; method not stated

Kd [1]: 8 nM
Substance: IgG1 (antibody)

reduction in FcRn binding (FcRn): > 90%
Substance: mutated EPO-Fc (Fc modified in three critical amino acid residues in the Fc domain: I253A, H310A, and H435A) (Fc fusion)

Kd (EPO receptor (EpoR)): 0.2 nM
Substance: native huEPO (from UniProt P01588 28-193) (ligand)
